This test deals with GPIIb/IIIa (UniProt P08514). Kind of test: inhibition of hu Fibrinogen-Ru binding.

The term IC50 denotes the midpoint of a concentration-inhibition curve. Lower therefore signals greater potency in that assay. One may read the Ki as a dissociation constant, usually derived from enzyme kinetics or from competition with a known ligand. Low values mean tighter binding, high ones weaker binding. In the case of Fibrinogen, the IC50 came to 10.5 nM and the Ki came to 5.26 nM.

The values above are taken from patent US20020168363A1, “Integrin/adhesion antagonists” (Amgen Inc., priority 2000, published 2002).
